Assay results taken from publication PMC3695765.

Biological target: FLAG-ZO-2 (UniProt Q9UDY2)
Experiment: GST pull-down from cell lysate
Conditions: reference: GST-OccC not prephosphorylated; sites T400,T404,S408

With “occludin C-terminal cytoplasmic tail, 263-523 (from UniProt Q16625) GST-OccC prephosphorylated by CK2” the “binding against the reference” value was “weaker”.
